Test results taken from patent US20200270125A1 (OMEROS, published 2020).

Tests used:
[1] = biological target: T1, human MASP-3 (construct not stated) (human); experiment: cell-based or functional assay
T1 chain: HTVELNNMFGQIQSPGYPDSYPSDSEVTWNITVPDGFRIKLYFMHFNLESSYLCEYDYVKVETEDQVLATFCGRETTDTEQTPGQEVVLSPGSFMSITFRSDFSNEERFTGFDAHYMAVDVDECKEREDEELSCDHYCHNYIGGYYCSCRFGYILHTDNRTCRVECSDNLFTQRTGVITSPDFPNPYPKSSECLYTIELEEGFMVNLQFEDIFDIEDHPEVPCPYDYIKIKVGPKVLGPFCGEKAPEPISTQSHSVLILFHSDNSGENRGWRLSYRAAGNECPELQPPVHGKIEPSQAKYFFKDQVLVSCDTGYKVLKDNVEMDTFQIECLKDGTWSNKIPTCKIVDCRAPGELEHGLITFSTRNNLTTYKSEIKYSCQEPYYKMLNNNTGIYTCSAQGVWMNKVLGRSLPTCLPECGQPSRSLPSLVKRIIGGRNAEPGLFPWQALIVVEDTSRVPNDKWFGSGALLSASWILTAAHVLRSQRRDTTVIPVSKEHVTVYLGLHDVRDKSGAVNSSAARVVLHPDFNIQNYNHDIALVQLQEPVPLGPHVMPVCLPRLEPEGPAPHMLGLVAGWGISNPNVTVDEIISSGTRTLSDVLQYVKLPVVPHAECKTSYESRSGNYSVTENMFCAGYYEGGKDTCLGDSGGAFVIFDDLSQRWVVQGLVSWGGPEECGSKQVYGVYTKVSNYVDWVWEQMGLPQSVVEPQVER

[2] = biological target: T2, human MASP-3 CCP1-CCP2-SP fragment (human); experiment: cell-based or functional assay
T2 chain: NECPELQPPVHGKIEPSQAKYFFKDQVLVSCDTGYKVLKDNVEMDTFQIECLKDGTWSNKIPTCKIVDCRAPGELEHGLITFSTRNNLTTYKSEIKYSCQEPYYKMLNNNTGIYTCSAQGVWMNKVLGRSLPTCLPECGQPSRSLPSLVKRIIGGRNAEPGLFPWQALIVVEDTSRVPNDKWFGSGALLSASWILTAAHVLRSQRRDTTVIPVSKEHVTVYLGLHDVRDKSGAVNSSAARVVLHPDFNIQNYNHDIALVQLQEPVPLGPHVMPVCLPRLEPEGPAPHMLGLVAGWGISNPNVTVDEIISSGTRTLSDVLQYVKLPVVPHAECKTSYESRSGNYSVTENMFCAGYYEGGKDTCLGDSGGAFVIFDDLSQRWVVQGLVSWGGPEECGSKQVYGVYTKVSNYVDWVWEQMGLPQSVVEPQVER

[3] = biological target: T1, human MASP-3 (construct not stated); experiment: not described at this place
[4] = biological target: T3, recombinant full-length mouse MASP-3 (mouse); experiment: sandwich ELISA, full-length mouse MASP-3 captured by αM3-259
T3 construct: Entry is with leader; also called mouse full length MASP-3
T3 chain: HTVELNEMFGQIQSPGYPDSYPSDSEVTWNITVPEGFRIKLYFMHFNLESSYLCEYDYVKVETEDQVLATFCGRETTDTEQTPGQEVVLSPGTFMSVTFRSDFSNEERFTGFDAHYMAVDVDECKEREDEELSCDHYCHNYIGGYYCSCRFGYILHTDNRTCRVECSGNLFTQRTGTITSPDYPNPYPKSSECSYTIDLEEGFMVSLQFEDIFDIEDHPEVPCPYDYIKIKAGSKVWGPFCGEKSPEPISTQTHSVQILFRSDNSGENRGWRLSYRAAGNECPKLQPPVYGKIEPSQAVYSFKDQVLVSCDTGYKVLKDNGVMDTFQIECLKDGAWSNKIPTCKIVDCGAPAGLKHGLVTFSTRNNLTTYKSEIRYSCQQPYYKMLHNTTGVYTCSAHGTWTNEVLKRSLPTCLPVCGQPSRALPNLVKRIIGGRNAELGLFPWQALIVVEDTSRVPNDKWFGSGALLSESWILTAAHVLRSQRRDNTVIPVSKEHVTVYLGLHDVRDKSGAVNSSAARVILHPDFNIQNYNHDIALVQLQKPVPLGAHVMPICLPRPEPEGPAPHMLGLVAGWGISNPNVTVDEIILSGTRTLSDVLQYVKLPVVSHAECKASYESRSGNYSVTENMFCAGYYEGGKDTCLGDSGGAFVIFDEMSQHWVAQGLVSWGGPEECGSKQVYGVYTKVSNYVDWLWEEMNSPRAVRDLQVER
Outline: (§1)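 Candidate MASP-3 antibodies incubated 1 h at room temperature on the prepared plate, then detected with mouse anti-human kappa-HRP for 1 h. Developed 5 min with TMB; absorbance read at 450 nm.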

[5] = biological target: T2, human MASP-3 CCP1-CCP2-SP fragment; experiment: sandwich ELISA: human MASP-3 CCP1-CCP2-SP captured on aM3-259, mAb detected with anti-human kappa-HRP, A450
Experimental: The plate was then washed (PBS-T, 0.05%) and the candidate MASP-3 antibodies were added followed by incubation for one hour at room temperature. The plate was washed (PBS-T, 0.05%) and a detection antibody was added (mouse anti-human kappa-HRP, SouthernBiotech #9230-05) for one hour at room temperature. After another wash (PBS-T, 0.05%) the plate was developed (5 minutes) with OPT EIA TMB (BD Biosciences #555214). Absorbance reading at A450 was measured using the Spectramax M5e plate reader.

[6] = biological target: T2, human MASP-3 CCP1-CCP2-SP fragment; experiment: sandwich ELISA, MASP-3 CCP1-CCP2-SP captured by αM3-259
Outline: as §1

[7] = biological target: T4, recombinant human MASP-2 (CCP1-CCP2-SP fragment) (human, UniProt O00187 298-686, limits assumed); experiment: ELISA: recombinant MASP-2 (CCP1-CCP2-SP) coated directly on the plate, A450
T4 construct: domain: CCP1-CCP2-SP fragment
T4 sequence (O00187 298-686 limits assumed): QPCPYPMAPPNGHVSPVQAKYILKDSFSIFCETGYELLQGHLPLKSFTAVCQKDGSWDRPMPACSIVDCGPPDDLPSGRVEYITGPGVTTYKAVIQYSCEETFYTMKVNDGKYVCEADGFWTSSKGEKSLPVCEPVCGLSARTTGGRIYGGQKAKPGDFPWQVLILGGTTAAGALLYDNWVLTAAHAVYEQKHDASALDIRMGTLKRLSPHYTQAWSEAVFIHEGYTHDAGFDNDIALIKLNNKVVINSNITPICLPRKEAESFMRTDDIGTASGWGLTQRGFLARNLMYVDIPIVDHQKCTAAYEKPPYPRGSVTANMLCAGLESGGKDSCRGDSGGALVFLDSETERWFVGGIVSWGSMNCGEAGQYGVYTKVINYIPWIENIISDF
Outline: as §1

[8] = biological target: T1, human MASP-3 (construct not stated); experiment: cell-based or functional assay
[9] = biological target: T5, recombinant human MASP-1A (S646A, CCP1-CCP2-SP fragment) (human, UniProt P48740 298-699, limits assumed); experiment: ELISA: recombinant MASP-1A (S646A, CCP1-CCP2-SP) coated directly on the plate, A450
T5 chain: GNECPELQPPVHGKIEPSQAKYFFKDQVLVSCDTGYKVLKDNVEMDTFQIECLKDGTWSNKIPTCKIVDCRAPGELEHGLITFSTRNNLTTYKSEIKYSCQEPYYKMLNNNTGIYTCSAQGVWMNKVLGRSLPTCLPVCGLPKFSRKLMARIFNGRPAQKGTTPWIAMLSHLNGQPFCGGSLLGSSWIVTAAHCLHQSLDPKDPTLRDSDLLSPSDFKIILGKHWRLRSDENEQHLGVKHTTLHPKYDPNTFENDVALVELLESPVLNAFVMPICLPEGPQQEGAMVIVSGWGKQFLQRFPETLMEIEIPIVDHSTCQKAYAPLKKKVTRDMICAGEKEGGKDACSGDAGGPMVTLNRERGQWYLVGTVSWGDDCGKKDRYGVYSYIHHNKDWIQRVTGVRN
Outline: as §1

[10] = biological target: T1, human MASP-3 (construct not stated); experiment: cross-species binding experiments
[11] = biological target: T1, human MASP-3 (construct not stated); experiment: ELISA, monovalent Fab
[12] = biological target: T3, recombinant full-length mouse MASP-3; experiment: ELISA, full-length mouse MASP-3 held by a capture antibody, monovalent Fab, anti-kappa-HRP
Excerpt: (§2) Binding affinity determinations were made by coating 96-well plates with an anti-MASP-3 capture antibody that binds the protein from multiple species.

[13] = biological target: T6, recombinant full-length human MASP-3 (human); experiment: ELISA, full-length human MASP-3 held by a capture antibody, monovalent Fab, anti-kappa-HRP
T6 construct: Recombinant, full-length; also called full-length human MASP-3 protein; rMASP-3 (full-length)
T6 chain: T1 chain
Excerpt: as §2

B1: MASP-3 mAb 13B1 (mouse-human chimeric IgG4) (antibody, V domains shown)
VH: QVQLKQSGAELMKPGASVKLSCKATGYTFTGKWIEWVKQRPGHGLEWIGEILPGTGSTNYNEKFKGKATFTADSSSNTAYMQLSSLTTEDSAMYYCLRSEDVWGTGTTVTVSS
VL: DIVMTQSPSSLAVSAGEKVTMSCKSSQSLLNSRTRKNYLAWYQQKPGQSPKLLIYWASTRESGVPDRFTGSGSGTDFTLTISSVQAEDLAVYYCKQSYNIPTFGGGTKLEIKR
notes: also called mAb M3-1; M3-1
- IC50, factor Bb deposition on zymosan in 10% CFD-depleted human serum with pro-CFD (flow cytometry) [1]: 0.311 nM
- inhibition of MASP-3-dependent fluorogenic tripeptide (BOC-V-P-R-AMC) cleavage [2]: 30.1 nM
- binding affinity [3]: ≤ 500 pM
- EC50 [4]: 0.035 nM
- EC50 [5]: 0.089 nM
- EC50 [6]: 0.059 nM
- binding result [7]: no binding (tested: about 20 nM (log10 about 1.3))
- Inhibition of Factor Bb Deposition on Zymosan (IC50 nM), 10% factor D-depleted human serum with pro-factor D [8]: 0.3 nM
- binding result [9]: no binding (tested: about 20 nM (log10 about 1.3))

B2: 13B1 Parental Fab (Fab, V domains shown)
VH: B1 VH
VL: B1 VL
notes: Monovalent Fab; also called M3-1 Fab; 13B1 Fab
- avidity [10]: < 500 pM
- EC50 [11]: 0.123 nM
- EC50 [12]: ~0.214 nM
- EC50 [13]: ~0.117 nM
